The test has as its target native human thyroglobulin (human) (UniProt P01266). In words: cryo-EM structure; hTG at 2 mg/mL in 25 mM Tris-HCl pH 7.5, 150 mM NaCl, sodium azide; plunge frozen; C2 symmetry imposed; composite map at 3.2 Å.

“native human thyroglobulin, P01266 20-2768” had a stoichiometry N of 2.

For the origin of these results see publication PMC8748809.
